Laboratory results: the supplement of paper PMC11908140

B1: library; numbered along this chain (parent)
chain: MRKPRAAVGSGHRKQAASQEGRQKHAKNNSQAKPSACDGLARQPEEVVLQASVSSYHLFRDVAEVTAFRGSLLSWYDQEKRDLPWRRRAEDEMDLDRRAYAVWVSEVMLQQTQVATVINYYTGWMQKWPTLQDLASASLEEVNQLWAGLGYYSRGRRLQEGARKVVEELGGHMPRTAETLQQLLPGVGRYTAGAIASIAFGQATGVVDGNVARVLCRVRAIGADPSSTLVSQQLWGLAQQLVDPARPGDFNQAAMELGATVCTPQRPLCSQCPVESLCRARQRVEQEQLLASGSLSGSPDVEECAPNTGQCHLCLPPSEPWDQTLGVVNFPRKASRKPPREESSATCVLEQPGALGAQILLVQRPNSGLLAGLWEFPSVTWEPSEQLQRKALLQELQRWAGPLPATHLRHLGEVVHTFSHIKLTYQVYGLALEGQTPVTTVPPGARWLTQEEFHTAAVSTAMKKVFRVYQGQQPGTCMGSKRSQVSSPCSRKKPRMGQQVLDNFFRSHISTDAHSLNSAAQ

Variants of: B1
Test: 8OG:A repair function score (normalized; synonymous = 0, nonsense = -1) (normalized log-likelihood score); higher = more repair activity (WT-like)
Conditions: with 8OG:A DNA repair reporter (GFP) in HEK-293 MUTYH KO cells
How it was run: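 GFP+ (repair) and GFP− bins of viable mCherry+ cells were collected at 72 h from MUTYH knockout HEK-293 cells bearing lentiviral MUTYH cDNA NNN codon-scan libraries in 10 pg/ml doxycycline, co-transfected with an 8OG:A GFP repair reporter and mCherry. Tile amplicons were sequenced, and per-tile Rosace fitness scores were normalized to a repair function score anchored on synonymous and nonsense distributions. Synonymous medians were set to 0 and nonsense to -1, with variants under 300 counts per million at the start removed.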
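Further: cells sorted at 72 h after reporter transfection.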

8OG:A repair function score, by site and new letter:
A456: W -0.531 | C -0.168 | M -0.328 | R -0.498 | P -0.814 | H -0.479 | Q -0.514 | G -0.246 | F -0.61
H454: W 0.536 | D -0.376 | E -0.068 | C 0.0357 | N 0.24 | Y -0.087 | P -0.139 | I -0.184 | R -0.00791 | Q -0.0422 | V -0.00673 | G -0.0392 | K -0.0092 | T 0.153 | L -0.234 | S -0.168 | M -0.158 | A 0.182 | F -0.268
L448: C -0.0248 | H -0.0456 | A -0.105 | V -0.117 | N -0.42 | K -0.743 | G -0.516 | Q -0.202 | D -0.727 | R -0.341 | F -0.205 | T -0.164 | S -0.184 | E -0.411 | Y -0.324 | W -0.658 | P -0.895 | I -0.0362 | M 0.207
A445: P -0.65 | L -0.363 | N -0.506 | M -0.292 | K -0.464 | H -0.71 | F -0.672 | I -0.318 | V -0.109 | S -0.0458 | C 0.0578 | W -0.606 | G -0.0675 | Q -0.575 | D -1.09 | Y -0.693 | T -0.288 | R -0.53 | E -0.567
Q450: E 0.156 | K 0.354 | L -0.12 | M -0.0723 | N 0.172 | F 0.013 | P -0.118 | H 0.0291 | C -0.0453 | R 0.0701 | V 0.073 | Y 0.286 | A -0.0533 | D -0.113 | W -0.011 | S -0.114 | T 0.0482 | G -0.0458 | I -0.0986
P443: R -0.143 | V 0.172 | Y -0.0335 | S 0.0247 | T -0.199 | W -0.309
T449: M -0.0649 | E -0.0743 | I -0.282 | Y 0.0178 | V -0.286 | C -0.0406 | K -0.144 | Q -0.0362 | D -0.211 | A 0.0699 | L -0.0459 | P -0.0904 | F -0.363 | W -0.634 | S 0.084 | H -0.131 | G -0.132 | N -0.203 | R 0.00957
T455: M -0.111 | G -0.211 | K -0.247 | I 0.0349 | F -0.273 | V -0.122 | P -0.714 | Y -0.209 | Q 0.174 | H 0.0572 | L -0.171 | E -0.119 | C 0.318 | D -0.394 | R -0.0505 | N 0.0652 | W -0.419 | A -0.141 | S 0.128
A457: W -0.671 | S -0.432 | H -0.398 | E -0.495 | T -0.533 | D -0.44 | N -0.58 | C -0.467 | P -0.15 | I -0.537 | G -0.183 | K -0.815 | Q -0.402 | V -0.205 | Y -0.48 | M -0.585 | L -0.583 | F -0.356 | R -0.672
R446: Y -0.414 | D -0.442 | I -0.193 | Q -0.119 | H -0.177 | C -0.342 | L -0.202 | M -0.121 | A -0.143 | W -0.356 | S -0.255 | E -0.312 | K -0.277 | F -0.449 | T -0.232 | G -0.67 | V -0.116 | N -0.508 | P -1.13
